{
  "source": "paper PMC11408749",
  "key": {"[1]": {"biological_target": "DNMT3BΔ214 (residues 215–853) D817G (human) (UniProt Q9UBC3)"}, "[2]": {"biological_target": "DNMT3BΔ214 (residues 215–853) D817G (human) (UniProt Q9UBC3)", "experiment": "AUC; sedimentation velocity, 40,000 rpm, 15 h, 20 C; 20 mM Tris-HCl pH 8.0, 300 mM NaCl, 1 mM TCEP, 5% glycerol; WT DNMT3BΔ214-3L at 2.5, 5.0 and 6.25 uM, mutant complexes at 5 uM; c(s) model in SEDFIT"}, "[3]": {"biological_target": "DNMT3BΔ214 (residues 215–853) H814R (human) (UniProt Q9UBC3)"}, "[4]": {"biological_target": "DNMT3BΔ214 (residues 215–853) H814R (human) (UniProt Q9UBC3)", "experiment": "AUC; sedimentation velocity, 40,000 rpm, 15 h, 20 C; 20 mM Tris-HCl pH 8.0, 300 mM NaCl, 1 mM TCEP, 5% glycerol; WT DNMT3BΔ214-3L at 2.5, 5.0 and 6.25 uM, mutant complexes at 5 uM; c(s) model in SEDFIT"}, "[5]": {"biological_target": "DNMT3BΔ214 (residues 215–853) V818M (human) (UniProt Q9UBC3)"}, "[6]": {"biological_target": "DNMT3BΔ214 (residues 215–853) V818M (human) (UniProt Q9UBC3)", "experiment": "AUC; sedimentation velocity, 40,000 rpm, 15 h, 20 C; 20 mM Tris-HCl pH 8.0, 300 mM NaCl, 1 mM TCEP, 5% glycerol; WT DNMT3BΔ214-3L at 2.5, 5.0 and 6.25 uM, mutant complexes at 5 uM; c(s) model in SEDFIT"}},
  "data": [
    {"substance": "DNMT3BΔ214 (residues 215–853) D817G (from UniProt Q9UBC3 215-853) (domain or fragment)", "values": [
      {"measurement": "MTase activity of the DNMT3BΔ214-3L complex (MTase-Glo, 0.2 uM complex, 36-bp dsDNA), percent of the WT complex", "setting": "[1]", "value": "5.43 % of WT"},
      {"measurement": "percent of the population as hetero-tetramer (168 kDa peak, DNMT3B dimerised)", "setting": "[2]", "value": 4.9, "unit": "%"}
    ]},
    {"substance": "DNMT3BΔ214 (residues 215–853) H814R (from UniProt Q9UBC3 215-853) (domain or fragment)", "values": [
      {"measurement": "MTase activity of the DNMT3BΔ214-3L complex (MTase-Glo, 0.2 uM complex, 36-bp dsDNA), percent of the WT complex", "setting": "[3]", "value": "1.09 % of WT"},
      {"measurement": "percent of the population as hetero-tetramer (168 kDa peak, DNMT3B dimerised)", "setting": "[4]", "value": 1.5, "unit": "%"}
    ]},
    {"substance": "DNMT3BΔ214 (residues 215–853) V818M (from UniProt Q9UBC3 215-853) (domain or fragment)", "values": [
      {"measurement": "MTase activity of the DNMT3BΔ214-3L complex (MTase-Glo, 0.2 uM complex, 36-bp dsDNA), percent of the WT complex", "setting": "[5]", "value": "35.9 % of WT"},
      {"measurement": "percent of the population as hetero-tetramer (168 kDa peak, DNMT3B dimerised)", "setting": "[6]", "value": 28.3, "unit": "%"}
    ]}
  ]
}
